Paper PMC5947699, “Cloning, purification and structure determination of the HIV integrase-binding domain of lens epithelium-derived growth factor” (Acta Crystallographica. Section F, Structural Biology …, 2018)

Target: the molecule itself
Test: AUC; sedimentation velocity, twofold dilution series starting from 6.5 mg/ml, 50 000 rev/min, 20°C, absorbance (280 nm) and interference optics, c(s) model in SEDFIT; buffer similar to that used for crystallization; monomer to dimer; self-association not saturated

B1: HIV integrase-binding domain (IBD) of lens epithelium-derived growth factor (LEDGF)/p75, His tag cleaved (domain or fragment, human)
chain: GGSMGSGGGGSGGGGSGGGGAAAMETSMDSRLQRIHAEIKNSLKIDNLDVNRCIEALDELASLQVTMQQAQKHTEMITTLKKIRRFKVSQVIMEKSTMLYNKFKNMFLVGE
notes: 24-amino-acid linker ending with methionine that precedes Glu345 of the IBD; left on the protein after TEV cleavage (ENLYFQ/G); Intact mass 11 882 Da measured against 11 881.66 Da calculated; The linker was not visible in the electron density; also called IBD protein; free IBD; source: E. coli B834 (DE3), purified (IMAC, SEC, TEV cleavage, reverse IMAC) for crystallization; E. coli C41 (DE3), …
Kd: ~2000 µM | stoichiometry N: 2
